Experimental data taken from US7045617 (MOUNT SINAI SCHOOL OF MEDICINE, dated 2006).
Side-chain parts run from the residue outwards. [ ]: non-standard residue; d: D form. Phe(4-NH2) = Nc1ccc(C[C@H](N)C(=O)O)cc1; Dap = NC[C@H](N)C(=O)O

Key:
[1] = target: T1, recombinant mouse protein kinase A (catalytic subunit) (mouse, UniProt P05132 2-351); assay: PKA radiometric kinase assay with biotinylated kemptide, Dixon plot, versus ATP
Description: (§1) Reagents from Calbiochem's Protein Kinase A kit were used to perform the inhibition assays and recombinant mouse PKA (catalytic subunit) was also purchased from Calbiochem (enzyme concentration was established by Bradford analysis). […] These were further diluted into water to produce a range of inhibitor solutions between 51 μM and 507 nM. An 11.25 μL aliquot from each of these solutions was pre-incubated with 7.5 μL of a 1.75 nM PKA enzyme solution (750 ug/uL bovine serum albumin) for 10 minutes at 30° C. after which 12.5 μL of pre-incubation mix was added to 12.5 μL of reaction mix (30 μM cold ATP, 50 μM biotinylated kemptide substrate, 0.04 uCi/μL γP-32 ATP, 80 mM Tris-HCl, 10 mM MgCl_2, pH 7.5) to initiate the enzymatic reaction. […] The columns were placed in scintillation vials and radioactivity was measured using a scintillation counter.

[2] = target: T1, recombinant mouse protein kinase A …; assay: PKA radiometric kinase assay, Dixon plot, adjusted to zero substrate
Description: as §1

[3] = target: protein tyrosine kinase Csk (UniProt P41240 1-450, limits assumed); assay: Csk kinase inhibition assay
Chain of protein tyrosine kinase Csk (P41240 whole entry): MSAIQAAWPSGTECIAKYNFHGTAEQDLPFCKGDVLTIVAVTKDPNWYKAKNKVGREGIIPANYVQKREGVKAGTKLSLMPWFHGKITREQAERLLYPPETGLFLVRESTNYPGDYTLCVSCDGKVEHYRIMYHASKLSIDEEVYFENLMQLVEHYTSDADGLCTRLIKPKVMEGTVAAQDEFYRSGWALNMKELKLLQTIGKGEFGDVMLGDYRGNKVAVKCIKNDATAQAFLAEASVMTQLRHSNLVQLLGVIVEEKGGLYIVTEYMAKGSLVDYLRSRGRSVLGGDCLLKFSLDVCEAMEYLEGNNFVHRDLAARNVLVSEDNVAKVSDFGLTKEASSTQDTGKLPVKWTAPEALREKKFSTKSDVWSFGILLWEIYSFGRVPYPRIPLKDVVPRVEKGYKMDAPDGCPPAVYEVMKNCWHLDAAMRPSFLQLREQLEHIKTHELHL

B1: kemptide-ATPγS conjugate (peptide)
peptide: Ac-LRRA[Dap]([Ac-ATPγS])LG-OH
Work on B1 yielded a Ki [1] of 9.56 µM and a Ki [2] of 4.6 µM.

B2: Compound 2 (peptide-ATP bisubstrate analog; IRS727 peptide linked to ATPγS through an acetyl linker) (peptide)
peptide: Ac-KKKLPATGD[Phe(4-NH2)]([Ac-ATPγS])MNMSPVGD-OH
notes: also called bisubstrate analog 2
Work on B2 yielded a Ki [3] of ~40 µM.
